Measurements from US20260248972A1, “DUAL RECEPTOR TARGETING RADIOLIGANDS AND USES THEREOF RELATED APPLICATIONS” (priority 2022, published 2026).

Experiment: in vivo
Details: BALB/c nude, mouse, in vivo, iv, total radioactivity
Protocol: To a 0.5 M NaOAc buffer (20-50 μL, pH=4.5) was added 4 μL of exemplary or comparator compound in DMSO stock solution (2000 μM) and 2 mCi ^177Lu (ITM Isotope Technologies Munich), the resulting mixture was heated to 95° C. for 15 min. The resulting product was analyzed by radio-TLC and radio-HPLC (column: Shim-pack GIST 5 μm 4.6*150 mm; buffer A: 0.2% formic acid H2O; buffer B: 0.1% formic acid acetonitrile; flow rate: 1 mL/min; gradient: 0-5 min: 10% B to 95% B; then 5-8 min: 95% B). The labelled products were used immediately or diluted by a PBS buffer containing freshly added 3 mg/mL ascorbate.
All animal care and experimental procedure were performed by following the animal protocols approved by the ethics committee of China Institute of Radiation Protection. The BALB/c nude mice (Charles River, Beijing) were utilized for these studies. Mice were below 5 per cage in sterile, microisolator cages under temperature- and humidity-controlled conditions with a 12 h light/12 h dark schedule and fed irradiated rodent chow and reverse osmosis (RO) sterile water ad libitum. In preparation for tumor cell inoculations, mice were anesthetized with isoflurane (RWD Life Science Inc.) at an induction rate of 4% and maintained at a rate of 2.5% with 0.4 L oxygen delivered via precision vaporizer and a non-rebreathing apparatus. These mice received subcutaneous rear flank injections of approximately 4×10^6 AR42J cells ([…] pancreatic cancer cell line) suspended in 200 μL of phosphate-buffered saline (PBS) and Matrigel (Corning) (1/1). Xenografted tumors were allowed to grow for ~2-4 weeks post-inoculation and ranged in mass from 0.05 to 0.50 g (average tumor size, 0.20 g). […] The mice were euthanized, and the tissues and organs were excised from the animals at 4, 24 and 72 h post-injection. The tissues and organs were weighed, counted in a PerkinElmer 2480 WIZARD2 γ counter, and the percent injected dose (% ID) and % ID/g of each organ or tissue were calculated.

C[C@@H](O)[C@H](NC(=O)[C@@H]1CSSC[C@H](NC(=O)[C@@H](Cc2ccccc2)NC(=O)[C@H](CCCCNC(=O)c2cccc(NC(=O)N[C@@H]3CN(C4CCCCC4)c4ccccc4N(CC(=O)C(C)(C)C)C3=O)c2)NC(=O)COCCOCCNC(=O)CN2CCN(CC(=O)O)CCN(CC(=O)O)CCN(CC(=O)O)CC2)C(=O)N[C@@H](Cc2ccc(O)cc2)C(=O)N[C@H](Cc2c[nH]c3ccccc23)C(=O)N[C@@H](CCCCN)C(=O)N[C@@H]([C@@H](C)O)C(=O)N1)C(=O)O [^177Lu-I-35, metal not drawn]
tissue uptake at 4 h (% ID/g Adrenal gland): 2.8 %ID/g | tissue uptake at 24 h (% ID/g Adrenal gland): 2.3 %ID/g | tissue uptake at 72 h (% ID/g Adrenal gland): 0.34 %ID/g | tissue uptake at 4 h (% ID/g Blood): 1.98 %ID/g | tissue uptake at 24 h (% ID/g Blood): 0.11 %ID/g | tissue uptake at 72 h (% ID/g Blood): 0.03 %ID/g | tissue uptake at 4 h (% ID/g Fat): 3.49 %ID/g | tissue uptake at 24 h (% ID/g Fat): 0.75 %ID/g | tissue uptake at 72 h (% ID/g Fat): 0.41 %ID/g | tissue uptake at 4 h (% ID/g Femur): 1.01 %ID/g | tissue uptake at 24 h (% ID/g Femur): 0.52 %ID/g | tissue uptake at 72 h (% ID/g Femur): 0.21 %ID/g | tissue uptake at 4 h (% ID/g Heart): 1.26 %ID/g | tissue uptake at 24 h (% ID/g Heart): 0.56 %ID/g | tissue uptake at 72 h (% ID/g Heart): 0.25 %ID/g | tissue uptake at 4 h (% ID/g Intestine): 2.36 %ID/g | tissue uptake at 24 h (% ID/g Intestine): 0.84 %ID/g | tissue uptake at 72 h (% ID/g Intestine): 0.72 %ID/g | tissue uptake at 4 h (% ID/g Kidney): 18.5 %ID/g | tissue uptake at 24 h (% ID/g Kidney): 6.06 %ID/g | tissue uptake at 72 h (% ID/g Kidney): 4.51 %ID/g | tissue uptake at 4 h (% ID/g Liver): 18.1 %ID/g | tissue uptake at 24 h (% ID/g Liver): 5.06 %ID/g | tissue uptake at 72 h (% ID/g Liver): 2.41 %ID/g | tissue uptake at 4 h (% ID/g Lung): 3.44 %ID/g | tissue uptake at 24 h (% ID/g Lung): 1.73 %ID/g | tissue uptake at 72 h (% ID/g Lung): 0.66 %ID/g | tissue uptake at 4 h (% ID/g Muscle): 0.42 %ID/g | tissue uptake at 24 h (% ID/g Muscle): 0.12 %ID/g | tissue uptake at 72 h (% ID/g Muscle): 0.03 %ID/g | tissue uptake at 4 h (% ID/g Pancreas): 5.03 %ID/g | tissue uptake at 24 h (% ID/g Pancreas): 0.96 %ID/g | tissue uptake at 72 h (% ID/g Pancreas): 0.34 %ID/g | tissue uptake at 4 h (% ID/g Spleen): 0.82 %ID/g | tissue uptake at 24 h (% ID/g Spleen): 0.47 %ID/g | tissue uptake at 72 h (% ID/g Spleen): 0.28 %ID/g | tissue uptake at 4 h (% ID/g Stomach): 6.98 %ID/g | tissue uptake at 24 h (% ID/g Stomach): 3.09 %ID/g | tissue uptake at 72 h (% ID/g Stomach): 2.29 %ID/g | tissue uptake at 4 h (% ID/g Tumor): 27.2 %ID/g | tissue uptake at 24 h (% ID/g Tumor): 17.8 %ID/g | tissue uptake at 72 h (% ID/g Tumor): 18 %ID/g

C[C@@H](O)[C@H](NC(=O)[C@@H]1CSSC[C@H](NC(=O)[C@@H](Cc2ccccc2)NC(=O)[C@H](CCCCNC(=O)c2cccc(NC(=O)N[C@@H]3CN(C4CCCCC4)c4ccccc4N(CC(=O)C(C)(C)C)C3=O)c2)NC(=O)COCCOCCNC(=O)COCCOCCNC(=O)CN2CCN(CC(=O)O)CCN(CC(=O)O)CCN(CC(=O)O)CC2)C(=O)N[C@@H](Cc2ccc(O)cc2)C(=O)N[C@H](Cc2c[nH]c3ccccc23)C(=O)N[C@@H](CCCCN)C(=O)N[C@@H]([C@@H](C)O)C(=O)N1)C(=O)O [Compound I-41, DOTA-OEG-OEG-K(Z360)-f[CYwKTC]T-OH]
tissue to tissue ratio at 24 h (T/K Tumor/Kidney ratio): 1.7 | tissue to tissue ratio at 24 h (T/L Tumor/Liver ratio): 10 | tissue to tissue ratio at 24 h (T/P Tumor/Pancreas ratio): 24 | tissue to tissue ratio at 24 h (T/Sp Tumor/Spleen ratio): 55 | tissue to tissue ratio at 24 h (T/St Tumor/Stomach ratio): 4 | tissue uptake at 24 h (uptake Kidney): 9.7 %ID/g | tissue uptake at 24 h (uptake Liver): 1.5 %ID/g | tissue uptake at 24 h (uptake Pancreas): 0.7 %ID/g | tissue uptake at 24 h (uptake Spleen): 0.3 %ID/g | tissue uptake at 24 h (uptake Stomach): 4 %ID/g | tissue uptake at 24 h (uptake Tumor): 16.1 %ID/g

C[C@@H](O)[C@H](NC(=O)[C@@H]1CSSC[C@H](NC(=O)[C@@H](Cc2ccccc2)NC(=O)CCOCCOCCOCCOCCOCCOCCNC(=O)[C@H](CCCCNC(=O)c2cccc(NC(=O)N[C@@H]3CN(C4CCCCC4)c4ccccc4N(CC(=O)C(C)(C)C)C3=O)c2)NC(=O)CN2CCN(CC(=O)O)CCN(CC(=O)O)CCN(CC(=O)O)CC2)C(=O)N[C@@H](Cc2ccc(O)cc2)C(=O)N[C@H](Cc2c[nH]c3ccccc23)C(=O)N[C@@H](CCCCN)C(=O)N[C@@H]([C@@H](C)O)C(=O)N1)C(=O)O [Compound I-40, DOTA-K(Z360)-PEG6-f[CYwKTC]T-OH]
tissue to tissue ratio at 24 h (T/K Tumor/Kidney ratio): 2 | tissue to tissue ratio at 24 h (T/L Tumor/Liver ratio): 5.7 | tissue to tissue ratio at 24 h (T/P Tumor/Pancreas ratio): 59 | tissue to tissue ratio at 24 h (T/Sp Tumor/Spleen ratio): 53 | tissue to tissue ratio at 24 h (T/St Tumor/Stomach ratio): 10 | tissue uptake at 24 h (uptake Kidney): 8.9 %ID/g | tissue uptake at 24 h (uptake Liver): 3.1 %ID/g | tissue uptake at 24 h (uptake Pancreas): 0.3 %ID/g | tissue uptake at 24 h (uptake Spleen): 0.3 %ID/g | tissue uptake at 24 h (uptake Stomach): 1.8 %ID/g | tissue uptake at 24 h (uptake Tumor): 17.9 %ID/g
